Consider 5 molecules from patent US20110008829A1 (University of California, published 2011).

The labels stand for the following.
B1: HMGR alone (enzyme, Saccharomyces cerevisiae, UniProt P12683 554-1054, looked up)
chain: VLTNKTVISGSKVKSLSSAQSSSSGPSSSSEEDDSRDIESLDKKIRPLEELEALLSSGNTKQLKNKEVAALVIHGKLPLYALEKKLGDTTRAVAVRRKALSILAEAPVLASDRLPYKNYDYDRVFGACCENVIGYMPLPVGVIGPLVIDGTSYHIPMATTEGCLVASAMRGCKAINAGGGATTVLTKDGMTRGPVVRFPTLKRSGACKIWLDSEEGQNAIKKAFNSTSRFARLQHIQTCLAGDLLFMRFRTTTGDAMGMNMISKGVEYSLKQMVEEYGWEDMEVVSVSGNYCTDKKPAAINWIEGRGKSVVAEATIPGDVVRKVLKSDVSALVELNIAKNLVGSAMAGSVGGFNAHAANLVTAVFLALGQDPAQNVESSNCITLMKEVDGDLRISVSMPSIEVGTIGGGTVLEPQGAMLDLLGVRGPHATAPGTNARQLARIVACAVLAGELSLCAALAAGHLVQSHMTHNRKPAEPTKPNNLDATDINRLKDGSVTCIKS
notes: Control prey of the GST pull-down; also called HMGR prey without an N-terminal SH3 domain

Experiment [1] deals with T1, WASP GBD (GTPase Binding Domain of rat N-WASP, residues 196-274) (rat, UniProt O08816 196-274).
T1 construct: range 196-274; also called rat N-WASP GBD
T1 sequence (O08816 196-274 limits assumed): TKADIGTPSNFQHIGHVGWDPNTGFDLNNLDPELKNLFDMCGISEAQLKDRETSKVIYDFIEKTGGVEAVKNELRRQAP
Description: method not described; footnote: affinities reported as measured in trans.

Experiment [2] deals with T2, N-terminal GST-tagged HMGS with 1 C-terminal SH3 peptide ligand (Saccharomyces cerevisiae, UniProt P54839 1-491).
T2 construct: Bait of the GST pull-down; also called HMGS bait with 1 SH3 ligand; not shown: glutathione S-transferase (GST) tag at the N-terminus
T2 sequence: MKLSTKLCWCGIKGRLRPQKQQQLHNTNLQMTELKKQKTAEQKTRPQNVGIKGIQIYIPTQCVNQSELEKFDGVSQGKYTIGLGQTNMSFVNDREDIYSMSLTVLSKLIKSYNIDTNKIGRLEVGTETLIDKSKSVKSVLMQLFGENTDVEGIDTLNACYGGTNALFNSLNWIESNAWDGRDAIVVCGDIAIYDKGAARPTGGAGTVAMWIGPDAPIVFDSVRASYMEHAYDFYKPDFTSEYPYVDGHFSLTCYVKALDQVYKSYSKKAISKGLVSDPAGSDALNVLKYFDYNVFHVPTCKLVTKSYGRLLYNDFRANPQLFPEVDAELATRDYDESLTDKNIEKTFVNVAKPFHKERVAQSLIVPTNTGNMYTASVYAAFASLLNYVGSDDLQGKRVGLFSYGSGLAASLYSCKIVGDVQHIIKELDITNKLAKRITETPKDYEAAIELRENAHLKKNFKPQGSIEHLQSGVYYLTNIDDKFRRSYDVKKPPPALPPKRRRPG
Description: GST pull-down, GST-HMGS as bait, HMGR as prey. The text has this: (§1) As a direct test of engineered enzyme co-recruitment, the bottleneck enzymatic step of the mevalonate biosynthetic pathway (HMGR-catalyzed turnover of HMG-CoA to mevalonate) was targeted for flux improvement. A synthetic complex of HMGS and HMGR was created by recombining a varying number of SH3 (Src Homology 3 domain from the adapter protein CRK) interaction ligands to the C-terminus of HMGS and recombining an SH3 domain to the N-terminus of HMGR (FIG. 2a). This simple design also allowed for control over the relative ratio of these two enzymes at the resultant complex. The ability of these proteins to interact in an SH3-dependent manner was probed in a GST pull-down experiment (FIG. 2b). […] As prey, an SH3 domain was recombined to the N-terminus of HMGR and compared to HMGR alone. No significant interaction was observed between HMGS and HMGR without engineered SH3 interactions. However, HMGR with an N-terminal SH3 domain was pulled down by GST-tagged HMGS in a ligand-dependent manner. […] Thus, the relative stoichiometries of these two enzymes were controlled at the complex by varying the number of interaction ligands tethered to HMGS.

The experiment “HMGR alone” addresses B1. Description: GST pull-down, GST-HMGS as bait, HMGR as prey.
Text: as §1

In experiment [3] the target is T3, HMGR with an N-terminal SH3 domain (mouse; Saccharomyces cerevisiae, UniProt Q64010 134-191; P12683 554-1054).
T3 construct: also called SH3 domain recombined to the N-terminus of HMGR; HMGR prey with an N-terminal SH3 domain
Description: GST pull-down, GST-HMGS as bait, HMGR as prey.
Text: as §1

Experiment [4] deals with T4, Syn PDZ (PDZ domain of mouse α-syntrophin, residues 77-171) (mouse, UniProt Q61234 77-171).
T4 construct: range 77-171; also called Mouse α-syntrophin (syn) PDZ domain
T4 sequence (looked up): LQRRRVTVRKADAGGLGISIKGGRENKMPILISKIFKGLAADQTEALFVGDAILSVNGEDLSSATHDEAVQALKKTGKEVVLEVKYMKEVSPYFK
Description: method not described; footnote: affinities reported as measured in trans.

Experiment [5] concerns the target T5, Crk SH3 (SH3 domain of mouse Crk, residues 134-191) (mouse, UniProt Q64010 134-191).
T5 construct: range 134-191; also called mouse Crk SH3 domain
The experiment is described as above.

T5 sequence (Q64010 134-191 limits assumed): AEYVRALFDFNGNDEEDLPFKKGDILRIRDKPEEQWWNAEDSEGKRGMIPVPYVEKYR

Take LVGALMHVMQKRSRAIHSSDEGEDQAGDEDED (also called GBD ligand) [GBD lig.]: binding in experiment [1] was characterised by a dissociation constant (Kd) of 1 µM.

For B1, in experiment [2], the binding result was “no binding”.

B2: N-terminal GST-tagged HMGS with 0 C-terminal SH3 peptide ligands (enzyme, UniProt P54839 1-491, looked up)
chain: MKLSTKLCWCGIKGRLRPQKQQQLHNTNLQMTELKKQKTAEQKTRPQNVGIKGIQIYIPTQCVNQSELEKFDGVSQGKYTIGLGQTNMSFVNDREDIYSMSLTVLSKLIKSYNIDTNKIGRLEVGTETLIDKSKSVKSVLMQLFGENTDVEGIDTLNACYGGTNALFNSLNWIESNAWDGRDAIVVCGDIAIYDKGAARPTGGAGTVAMWIGPDAPIVFDSVRASYMEHAYDFYKPDFTSEYPYVDGHFSLTCYVKALDQVYKSYSKKAISKGLVSDPAGSDALNVLKYFDYNVFHVPTCKLVTKSYGRLLYNDFRANPQLFPEVDAELATRDYDESLTDKNIEKTFVNVAKPFHKERVAQSLIVPTNTGNMYTASVYAAFASLLNYVGSDDLQGKRVGLFSYGSGLAASLYSCKIVGDVQHIIKELDITNKLAKRITETPKDYEAAIELRENAHLKKNFKPQGSIEHLQSGVYYLTNIDDKFRRSYDVKK
notes: Bait of the GST pull-down; also called HMGS bait with 0 SH3 ligands; not shown: glutathione S-transferase (GST) tag at the N-terminus
For B2, the binding result (with HMGR alone; in experiment [3]) was “no binding” in each case.

For the molecule GVKESLV (also called PDZ ligand; GVKESLV) [PDZ lig.], the affinity in experiment [4], expressed as Kd, was 8 µM.

Consider PPPALPPKRRRPG (also called SH3 peptide ligand) [SH3 lig.], for which, in experiment [5], binding was put at a Kd of 0.1 µM.
